In patent US20210338733A1 (University of Pennsylvania, published 2021):

Molecular target: T1, TnMUC1 (aberrantly glycosylated Tn glycoform of MUC1) as expressed by tumor cells (human, UniProt P15941 24-1255, Tn (GalNAca1-O-Ser/Thr) glycans; sites not stated)
T1 construct: whole, on cells; One molecule is used for all TnMUC1-positive target cells; In the IHC of breast tumor tissue the staining was cytoplasmic and/or membranous; also called TnMUC1 antigen; TnMUC1+ target cells (Jurkat E6-1, Hs766T, MCF7, breast cancer cell lines and tissue)
Assay: immunohistochemistry on breast cancer tissue

T1 sequence (P15941 24-1255): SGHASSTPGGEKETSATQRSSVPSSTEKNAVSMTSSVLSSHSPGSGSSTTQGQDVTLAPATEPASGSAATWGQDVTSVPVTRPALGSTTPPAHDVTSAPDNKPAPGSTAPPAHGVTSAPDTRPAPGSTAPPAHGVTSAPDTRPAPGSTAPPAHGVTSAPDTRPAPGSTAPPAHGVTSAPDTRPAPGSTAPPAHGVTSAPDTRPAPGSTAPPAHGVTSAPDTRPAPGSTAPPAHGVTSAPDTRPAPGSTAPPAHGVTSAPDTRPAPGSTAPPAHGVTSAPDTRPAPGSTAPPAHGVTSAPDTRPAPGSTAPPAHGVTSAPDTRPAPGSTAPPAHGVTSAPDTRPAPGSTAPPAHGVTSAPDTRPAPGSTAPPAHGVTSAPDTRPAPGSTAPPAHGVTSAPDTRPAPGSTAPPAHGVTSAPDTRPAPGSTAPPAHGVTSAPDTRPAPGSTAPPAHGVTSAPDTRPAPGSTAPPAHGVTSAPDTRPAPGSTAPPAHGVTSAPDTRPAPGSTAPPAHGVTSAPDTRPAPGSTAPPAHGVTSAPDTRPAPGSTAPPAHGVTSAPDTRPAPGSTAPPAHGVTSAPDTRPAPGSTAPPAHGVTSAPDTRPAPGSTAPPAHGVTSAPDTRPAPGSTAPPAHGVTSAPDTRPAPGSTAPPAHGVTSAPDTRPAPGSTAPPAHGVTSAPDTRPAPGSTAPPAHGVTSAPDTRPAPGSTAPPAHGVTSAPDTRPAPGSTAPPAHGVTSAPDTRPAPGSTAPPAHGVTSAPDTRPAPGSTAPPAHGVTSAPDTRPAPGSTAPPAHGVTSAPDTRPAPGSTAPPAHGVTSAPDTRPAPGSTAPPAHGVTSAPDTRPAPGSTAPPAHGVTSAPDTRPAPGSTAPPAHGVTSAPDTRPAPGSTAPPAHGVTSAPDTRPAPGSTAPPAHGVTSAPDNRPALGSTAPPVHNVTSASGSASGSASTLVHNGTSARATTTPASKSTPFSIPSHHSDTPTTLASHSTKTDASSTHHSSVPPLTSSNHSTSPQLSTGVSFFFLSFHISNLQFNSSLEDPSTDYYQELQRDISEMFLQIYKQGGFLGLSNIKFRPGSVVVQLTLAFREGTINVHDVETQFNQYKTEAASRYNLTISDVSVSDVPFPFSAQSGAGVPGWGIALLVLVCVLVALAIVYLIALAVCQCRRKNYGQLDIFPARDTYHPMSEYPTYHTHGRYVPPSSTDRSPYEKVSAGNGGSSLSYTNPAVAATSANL

B1: Anti-TnMUC1 murine monoclonal antibody clone 5E5 (antibody, V domains shown)
VH: QVQLQQSDAELVKPGSSVKISCKASGYTFTDHAIHWVKQKPEQGLEWIGHFSPGNTDIKYNDKFKGKATLTVDRSSSTAYMQLNSLTSEDSAVYFCKTSTFFFDYWGQGTTLTVSS
VL: ELVMTQSPSSLTVTAGEKVTMICKSSQSLLNSGDQKNYLTWYQQKPGQPPKLLIFWASTRESGVPDRFTGSGSGTDFTLTISSVQAEDLAVYYCQNDYSYPLTFGAGTKLELK
notes: also called 5E5 mAb; mAb 5E5
binding result: binds
